Results from publication PMC7332060, “Characterizing the actin-binding ability of Zasp52 and its contribution to myofibril assembly” (PLoS ONE, 2020).

B1: α-actinin (Cytoskeleton AT-01) (natural protein)
chain: MNQIEPGVQYNYVYDEDEYMIQEEEWDRDLLLDPAWEKQQRKTFTAWCNSHLRKAGTQIENIEEDFRNGLKLMLLLEVISGERLPKPDRGKMRFHKIANVNKALDYIASKGVKLVSIGAEEIVDGNVKMTLGMIWTIILRFAIQDISVEETSAKEGLLLWCQRKTAPYRNVNIQNFHTSWKDGLGLCALIHRHRPDLIDYSKLNKDDPIGNINLAMEIAEKHLDIPKMLDAEDIVNTPKPDERAIMTYVSCFYHAFAGAEQAETAANRICKVLAVNQENERLMEEYERLASELLEWIRRTIPWLENRTPEKTMKAMQKKLEDFRDYRRKHKPPKVQEKCQLEINFNTLQTKLRISNRPAFMPSEGKMVSDAGAWQRLEQAEKGYEEWLLNEIRRLERLEHLAEKFRQKASTHETWAYGKEQILLQKDYESASLTEVRALLRKHEAFESDLAAHQDRVEQIAAIAQELNELDYHDAVNVNDRCQKICDQWDRLGTLTQKRREALERTEKLLETIDQLHLEFAKRAAPFNNWMEGAMEDLQDMFIVHSIEEIQSLITAHEQFKATLPEADGERQSIMAIQNEVEKVIQSYNIRISSSNPYSTVTMDELRAKWDKVKQLVPIRDQSLQEELARQHANERLRRQFAAQANAIGPWIQNKMEEIARSSIQITGALEDQMNQLKQYEHNIINYKNNIDKLEGDHQLIQEALVFDNKHTNYTMEHIRVGWELLLTTIARTINEVETQILTRDAKGITQEQMNEFRASFNHFDRRKNGLMDHEDFRACLISMGYDLGEAEFARIMTLVDPNGQGTVTFQSFIDFMTRETADTDTAEQVIASFRILASDKPYILAEELRRELPPDQAQYCIKRMPAYSGPGSVPGALDYTAFSSALYGESDL
B2: GST-Zasp52-PK (natural protein)
chain: MAQPQLLQIKLSRFDAQPWGFRLQGGTDFAQPLLVQKVNAGSLSEQAGLQPGDAVVKINDVDVFNLRHKDAQDIVVRSGNNFVITVQRGGSTWRPHVTPTGNVPQPNSPYLQTVTKTSLAHKQQDSQHIGCGYNNAARPFSNGGDGGVKSIVNKQYNTPVGIYSDESIAETLSAQAEVLAGGVLGVNFKKNEKEYQGDRSEVLKFLREEETGQSTPAFGNSHYEHDAPQQLQQPQQQYNQHQQHYHQQQQQQQSSTTRHVSAPVNSPKPPSTGGLPTGQNICTECERLITGVFVRIKDKNLHVECFKCATCGTSLKNQGYYNFNNKLYCDIHAKQAAINNPPTGTEGYVPVPIKPNTKLSASTISSALNSHGYGGHSNGYSNGNSTPAPAPV

Legend:
GST-Zasp52-PK = target: B2; test: SPR; surface plasmon resonance imaging (PlexArray HT); GST-Zasp52-PK printed on gold-coated chip; G-actin or α-actinin injected; PBST running buffer; 25°C; kinetic analysis with BIAevaluation 4.1; details: both partners purified
[1] = target: G-actin (Cytoskeleton AKL-99) (UniProt P68135 1-377); test: as above; details: both partners purified

Binder | Kd (GST-Zasp52-PK) [nM] | Kd [1] [nM]
B1 | 86.5 | –
B2 | – | 1100
